Results on seven molecules are retold here after patent US20200223889A1 (Novo Nordisk, published 2020).

Positions of bridges follow the written chain, without caps; N, C: chain ends. Non-standard residues stand in square brackets, D forms with d. 1Nal = N[C@@H](Cc1cccc2ccccc12)C(=O)O; Hyp = O=C(O)[C@@H]1C[C@@H](O)CN1; Thz = O=C(O)[C@@H]1CSCN1; Sar = CNCC(=O)O

For test [1], the target named is human melanocortin 1 receptor (human, UniProt Q01726 1-317). The experiment in a line: cell-based or functional assay.
human melanocortin 1 receptor, sequence (Q01726 whole entry): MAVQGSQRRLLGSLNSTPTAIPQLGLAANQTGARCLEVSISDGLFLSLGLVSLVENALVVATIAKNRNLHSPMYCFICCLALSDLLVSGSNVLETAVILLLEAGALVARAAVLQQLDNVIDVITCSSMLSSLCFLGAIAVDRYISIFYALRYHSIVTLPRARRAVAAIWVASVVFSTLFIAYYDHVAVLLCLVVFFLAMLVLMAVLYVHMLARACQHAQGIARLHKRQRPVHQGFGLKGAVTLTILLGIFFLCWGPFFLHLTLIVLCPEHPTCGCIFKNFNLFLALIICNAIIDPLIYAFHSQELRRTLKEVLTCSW
The target in test [2] is T1, human melanocortin 4 receptor (human, UniProt P32245 1-332). The experiment in a line: cell-based or functional assay.
T1 sequence (P32245 whole entry): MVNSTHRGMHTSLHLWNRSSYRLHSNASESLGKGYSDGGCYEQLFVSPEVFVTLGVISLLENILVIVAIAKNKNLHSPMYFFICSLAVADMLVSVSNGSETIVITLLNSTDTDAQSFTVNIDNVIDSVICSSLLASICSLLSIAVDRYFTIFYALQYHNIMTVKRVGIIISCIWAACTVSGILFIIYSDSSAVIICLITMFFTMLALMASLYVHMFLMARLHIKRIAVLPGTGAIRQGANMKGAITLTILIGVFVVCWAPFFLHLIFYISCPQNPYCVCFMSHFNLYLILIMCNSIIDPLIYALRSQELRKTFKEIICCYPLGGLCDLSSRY
Test [3] concerns the target T1, human melanocortin 4 receptor. Briefly: competition with 125-NDP-α-MSH, BHK human MC4R membranes. How it is done:
In order to assess the binding affinity of the selected compounds for the human MC4R competitive binding assays was performed with radiolabeled NDP-alpha MSH (¹²⁵NDP-α-MSH).
The assay was performed in 96-well filterplates (Unifilter) using BHK cells stably expressing the human MC4 receptor.
The BHK cell membranes were prepared from frozen or fresh cells that were homogenized in 20 mM HEPES pH 7.1, 5 mM MgCl₂, 1 mg/ml bacitracin (buffer 1) and centrifuged at 15000 rpm at 4° C., 10 min in a Sorvall RC 5B plus, SS-34 rotor. The supernatant was discarded, and the pellets were re-suspended in buffer 1, homogenized and centrifuged two more times. The final pellets were re-suspended in buffer 1 and the protein concentration was measured and adjusted with buffer 1 to 5 mg/ml and the membrane preparation was kept at −80° C. until assay. The assay was run on a dilution of this cell membrane suspension without any further preparation. The suspension was diluted to give maximally 10% specific binding, i.e. to approx. 50-100 fold dilution, optimized after each membrane preparation. The assay was performed in a total volume of 200 μl: 50 μl of cell suspension, 50 μl of ¹²⁵NDP-α-MSH (apx. […] in final concentration), 50 μl of test compound and 50 μl binding buffer were mixed and incubated for 2 h at 25° C. (binding buffer: 25 mM HEPES, pH 7.0, 1 mM CaCl₂), 1 mM MgSO₄, 1 mM EGTA, 0.005% Tween™ 20 and 0.1% HSA or, alternatively, 0.1% ovalbumin (Sigma; catalogue No. A-5503)). Test compounds were dissolved in 100% DMSO and diluted in binding buffer in a dose range from 1 μM to 0.001 nM. Radiolabelled ligand and membranes were diluted in binding buffer. The incubation was stopped by dilution with 8×100 μl ice-cold 0.9% NaCl. The radioactivity retained on the filters was counted using a Packard Topcounter. The data were analysed by non-linear regression analysis of binding curves, using the Windows™ program GraphPad™ Prism (GraphPad Software, USA).

B1: Chem. 63 (peptide)
peptide: XAHFRWCAHXRW
modifications: Pen 1; D-Phe 4, 10; disulphide Pen1-Cys7; head-to-tail amide Pen1-Trp12
notes: also called c[c[Pen-Ala-His-D-Phe-Arg-Trp-Cys]-Ala-His-D-Phe-Arg-Trp]
With B1, in test [1], the “MC1R cAMP EC50” value was 0.84 nM. Besides, the “MC4R cAMP EC50” value in test [2] was found to be 0.02 nM. In addition, the affinity in test [3], expressed as Ki, was 0.08 nM.

B2: Chem. 64 (peptide)
peptide: cyclo(CAH[dF]R[1Nal]CAKKKW)
modifications: disulfide 1-7
SMILES: C[C@@H]1NC(=O)[C@@H]2CSSC[C@H](NC(=O)[C@H](Cc3cccc4ccccc34)NC(=O)[C@H](CCCNC(=N)N)NC(=O)[C@@H](Cc3ccccc3)NC(=O)[C@H](Cc3c[nH]cn3)NC1=O)C(=O)N[C@@H](C)C(=O)N[C@@H](CCCCN)C(=O)N[C@@H](CCCCN)C(=O)N[C@@H](CCCCN)C(=O)N[C@@H](Cc1c[nH]c3ccccc13)C(=O)N2
notes: also called c[c[Cys-Ala-His-D-Phe-Arg-1-Nal-Cys]-Ala-Lys-Lys-Lys-Trp]
As to B2, the “MC1R cAMP EC50” value in test [1] is 4.23 nM. Moreover, the “MC4R cAMP EC50” value in test [2] was 0.03 nM. Further, the affinity in test [3] corresponds to a Ki of 0.09 nM.

B3: Chem. 74 (peptide)
peptide: cyclo(C[Sar]H[dF]HWCAKKKR)
modifications: disulfide 1-7
SMILES: C[C@@H]1NC(=O)[C@@H]2CSSC[C@H](NC(=O)[C@H](CCCNC(=N)N)NC(=O)[C@H](CCCCN)NC(=O)[C@H](CCCCN)NC(=O)[C@H](CCCCN)NC1=O)C(=O)N(C)CC(=O)N[C@@H](Cc1c[nH]cn1)C(=O)N[C@H](Cc1ccccc1)C(=O)N[C@@H](Cc1c[nH]cn1)C(=O)N[C@@H](Cc1c[nH]c3ccccc13)C(=O)N2
notes: also called c[c[Cys-Sar-His-D-Phe-His-Trp-Cys]-Ala-Lys-Lys-Lys-Arg]
With B3, the “MC1R cAMP EC50” value in test [1] is more than 5.5 nM. Moreover, in test [2], the “MC4R cAMP EC50” value was found to be 0.29 nM. Also, in test [3], the Ki was 0.08 nM.

B4: Chem. 97 (peptide)
peptide: cyclo(C[Hyp]H[dF]HWCAKKKR)
modifications: disulfide 1-7
SMILES: C[C@@H]1NC(=O)[C@@H]2CSSC[C@H](NC(=O)[C@H](CCCNC(=N)N)NC(=O)[C@H](CCCCN)NC(=O)[C@H](CCCCN)NC(=O)[C@H](CCCCN)NC1=O)C(=O)N1C[C@H](O)C[C@H]1C(=O)N[C@@H](Cc1c[nH]cn1)C(=O)N[C@H](Cc1ccccc1)C(=O)N[C@@H](Cc1c[nH]cn1)C(=O)N[C@@H](Cc1c[nH]c3ccccc13)C(=O)N2
notes: also called c[c[Cys-Hyp-His-D-Phe-His-Trp-Cys]-Ala-Lys-Lys-Lys-Arg]
As to B4, in test [1], the “MC1R cAMP EC50” value amounted to 23.1 nM. In addition, the “MC4R cAMP EC50” value in test [2] is 0.19 nM. In test [3], this molecule returned an inhibitory constant (Ki) of 0.05 nM.

B5: Chem. 109 (peptide)
peptide: cyclo(C[Thz]H[dF]HWCAAKAW)
modifications: disulfide 1-7
SMILES: C[C@@H]1NC(=O)[C@H](C)NC(=O)[C@@H]2CSSC[C@H](NC(=O)[C@H](Cc3c[nH]c4ccccc34)NC(=O)[C@H](C)NC(=O)[C@H](CCCCN)NC1=O)C(=O)N1CSC[C@H]1C(=O)N[C@@H](Cc1c[nH]cn1)C(=O)N[C@H](Cc1ccccc1)C(=O)N[C@@H](Cc1c[nH]cn1)C(=O)N[C@@H](Cc1c[nH]c3ccccc13)C(=O)N2
notes: also called c[c[Cys-THAZ-His-D-Phe-His-Trp-Cys]-Ala-Ala-Lys-Ala-Trp]
B5: in test [1], the “MC1R cAMP EC50” value was more than 7 nM. In addition, the “MC4R cAMP EC50” value in test [2] was 0.15 nM. Affinity in test [3] was put at a Ki of 0.3 nM.

B6: Chem. 100 (peptide)
peptide: cyclo(C[Thz]H[dF]HWCAKKKR)
modifications: disulfide 1-7
SMILES: C[C@@H]1NC(=O)[C@@H]2CSSC[C@H](NC(=O)[C@H](CCCNC(=N)N)NC(=O)[C@H](CCCCN)NC(=O)[C@H](CCCCN)NC(=O)[C@H](CCCCN)NC1=O)C(=O)N1CSC[C@H]1C(=O)N[C@@H](Cc1c[nH]cn1)C(=O)N[C@H](Cc1ccccc1)C(=O)N[C@@H](Cc1c[nH]cn1)C(=O)N[C@@H](Cc1c[nH]c3ccccc13)C(=O)N2
notes: also called c[c[Cys-THAZ-His-D-Phe-His-Trp-Cys]-Ala-Lys-Lys-Lys-Arg]
As to B6, the “MC1R cAMP EC50” value in test [1] amounted to 18.5 nM. In addition, the “MC4R cAMP EC50” value in test [2] stood at 0.02 nM. The affinity in test [3], expressed as Ki, was 0.04 nM.

B7: Chem. 110 (peptide)
peptide: cyclo(C[Thz]H[dF]HWCAKKAW)
modifications: disulfide 1-7
SMILES: C[C@@H]1NC(=O)[C@H](CCCCN)NC(=O)[C@H](CCCCN)NC(=O)[C@H](C)NC(=O)[C@@H]2CSSC[C@H](NC(=O)[C@H](Cc3c[nH]c4ccccc34)NC1=O)C(=O)N1CSC[C@H]1C(=O)N[C@@H](Cc1c[nH]cn1)C(=O)N[C@H](Cc1ccccc1)C(=O)N[C@@H](Cc1c[nH]cn1)C(=O)N[C@@H](Cc1c[nH]c3ccccc13)C(=O)N2
notes: also called c[c[Cys-THAZ-His-D-Phe-His-Trp-Cys]-Ala-Lys-Lys-Ala-Trp]
For B7, in test [1], the “MC1R cAMP EC50” value was 63.3 nM. The “MC4R cAMP EC50” value in test [2] stood at 0.05 nM. This molecule also displayed a Ki in test [3] of 0.09 nM.
